According to patent US20240117018A1:

Key:
Assay in all cases: cell-based or functional assay
[1] = biological target: Env of HIV-1 pseudovirus 1006_11_C3_1601 (HIV-1)
[2] = biological target: Env of HIV-1 pseudovirus 1012_11_TC21_3257 (HIV-1)
[3] = biological target: Env of HIV-1 pseudovirus 1054_07_TC4_1499 (HIV-1)
[4] = biological target: Env of HIV-1 pseudovirus 246F C1G (HIV-1)
[5] = biological target: Env of HIV-1 pseudovirus 928-28 (HIV-1)
[6] = biological target: Env of HIV-1 pseudovirus CAP210.2.00.E8 (HIV-1)
[7] = biological target: Env of HIV-1 pseudovirus CAP45.2.00.G3 (HIV-1)
[8] = biological target: Env of HIV-1 pseudovirus CNE53 (HIV-1)
[9] = biological target: Env of HIV-1 pseudovirus HIV-0013095-2.11 (HIV-1)
[10] = biological target: Env of HIV-1 pseudovirus HIV-16055-2.3 (HIV-1)
[11] = biological target: Env of HIV-1 pseudovirus Q461.e2 (HIV-1)
[12] = biological target: Env of HIV-1 pseudovirus QH0692.42 (HIV-1)
[13] = biological target: Env of HIV-1 pseudovirus SC422661.8 (HIV-1)
[14] = biological target: Env of HIV-1 pseudovirus TRO.11 (HIV-1)
[15] = biological target: Env of HIV-1 pseudovirus ZM53M.PB12 (HIV-1)

In the case of PG16 (antibody), the IC50 [1] is reported as greater than 50 µg/mL, the IC80 [1] is reported as greater than 50 µg/mL and the IC50 [2] is reported as 0.03 µg/mL. It also gave an IC80 [2] of 0.219 µg/mL, an IC50 [3] greater than 50 µg/mL and an IC80 [3] greater than 50 µg/mL. It also gave an IC50 [4] greater than 50 µg/mL, an IC80 [4] greater than 50 µg/mL and an IC50 [5] of 0.034 µg/mL. The IC80 [5] was 0.237 µg/mL, the IC50 [6] was 0.01 µg/mL and the IC80 [6] was 0.042 µg/mL. It also gave an IC50 [7] of 1 ng/mL, an IC80 [7] of 3 ng/mL and an IC50 [8] greater than 50 µg/mL. For the same substance, the IC80 [8] was greater than 50 µg/mL, the IC50 [9] was 2 ng/mL and the IC80 [9] was 6 ng/mL. It also gave an IC50 [10] of 0.17 µg/mL, an IC80 [10] greater than 0.25 µg/mL and an IC50 [11] of 1.75 µg/mL. It also gave an IC80 [11] greater than 50 µg/mL, an IC50 [12] greater than 50 µg/mL and an IC80 [12] greater than 50 µg/mL. The IC50 [13] was 0.858 µg/mL, the IC80 [13] was greater than 50 µg/mL and the IC50 [14] was 1.92 µg/mL. The IC80 [14] was 49.6 µg/mL, the IC50 [15] was 7 ng/mL and the IC80 [15] was 0.051 µg/mL.
